This is an account of results in patent US20150290319A1 (EMERGENT BIOSOLUTIONS CANADA, published 2015).

A word on the Kd: it is the constant that tells how readily two partners part at equilibrium. Higher therefore signals a looser complex. In general, koff refers to a measure of how fast the partners let go of each other. A low value points to slow dissociation. A word on the kon: it is a measure of how fast the partners come together.

Test [1] deals with T1, recombinant toxin B fragment 4 (Clostridium difficile, UniProt P18177 1777-2366). Kind of test: Western blot, 3 ug protein per lane, mAb from CHOK1SV at 5 ug/mL. On the technique in general: Immunoblotting shows a protein as a band on a membrane.
The target of test [2] is T2, Clostridium difficile toxin B (whole toxin B) (Clostridium difficile).
T2 construct: also called TcdB; tcdB
Kind of test: BLI (Octet QKe), mAb on SA sensor, toxin B analyte, model 1:1; head prints KD (nM) but Kdis/Kon gives this number in M. In general terms: In BLI a coated tip is dipped into the sample, and binding shifts an interference pattern.

For test [3], the target named is T2, Clostridium difficile toxin B (whole …). Kind of test: BLI (Octet QKe), mAb on SA sensor, toxin B analyte, model 1:1.
The target is the same in test [4]. Kind of test: BLI (Octet QKe), mAb from CHOK1SV, toxin B; column kdis2 (1/s).
Test [5] concerns the target T1, recombinant toxin B fragment 4. Kind of test: Western blot, 3 ug protein per lane, mAb from CHOK1SV at 0.038 ug/mL [Cont.].
Test [6] deals with recombinant toxin B fragment 1 (Clostridium difficile, UniProt P18177 1-546). Described as above.
recombinant toxin B fragment 1, sequence (P18177 1-546 limits assumed): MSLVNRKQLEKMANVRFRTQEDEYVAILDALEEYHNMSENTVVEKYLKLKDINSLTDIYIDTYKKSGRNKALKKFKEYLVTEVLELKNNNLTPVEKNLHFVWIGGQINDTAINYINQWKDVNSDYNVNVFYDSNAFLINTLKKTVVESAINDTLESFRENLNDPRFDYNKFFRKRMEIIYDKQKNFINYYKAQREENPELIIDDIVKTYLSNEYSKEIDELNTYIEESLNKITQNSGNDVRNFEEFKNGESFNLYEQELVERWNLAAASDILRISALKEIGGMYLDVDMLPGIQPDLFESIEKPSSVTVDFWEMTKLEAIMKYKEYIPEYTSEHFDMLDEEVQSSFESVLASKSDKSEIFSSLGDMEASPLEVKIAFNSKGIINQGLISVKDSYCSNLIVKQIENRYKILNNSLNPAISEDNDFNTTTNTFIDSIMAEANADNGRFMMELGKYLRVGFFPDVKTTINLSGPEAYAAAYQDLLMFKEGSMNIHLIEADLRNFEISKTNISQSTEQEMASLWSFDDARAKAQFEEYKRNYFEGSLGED

T1 sequence (P18177 1777-2366 limits assumed): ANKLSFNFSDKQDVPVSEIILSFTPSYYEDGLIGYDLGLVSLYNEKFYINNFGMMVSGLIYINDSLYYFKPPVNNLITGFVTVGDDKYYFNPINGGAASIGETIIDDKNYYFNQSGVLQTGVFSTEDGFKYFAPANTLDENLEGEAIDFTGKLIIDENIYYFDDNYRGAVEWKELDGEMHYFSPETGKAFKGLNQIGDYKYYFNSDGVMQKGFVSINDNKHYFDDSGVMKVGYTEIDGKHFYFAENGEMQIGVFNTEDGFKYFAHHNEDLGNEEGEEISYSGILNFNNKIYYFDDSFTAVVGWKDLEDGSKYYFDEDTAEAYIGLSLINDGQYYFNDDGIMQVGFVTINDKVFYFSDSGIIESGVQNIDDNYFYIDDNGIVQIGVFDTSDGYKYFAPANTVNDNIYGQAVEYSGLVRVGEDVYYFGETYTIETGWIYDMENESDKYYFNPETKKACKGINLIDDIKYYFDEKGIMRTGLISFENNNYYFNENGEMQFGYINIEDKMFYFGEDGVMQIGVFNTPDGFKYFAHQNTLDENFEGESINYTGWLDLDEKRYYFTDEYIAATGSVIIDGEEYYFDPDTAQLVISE

B1: huCAN46G13a (antibody, V domains shown)
VH: QVQLQESGPGLVKPSQTLSLTCTVTGYSITSDSAWNWIRQFPGNNLEWMGYISYSGSTSYNPSLKSRISITRDTSKNQFSLKVNSVTAADTAVYYCARRSRVSFYFDYWGQGTLVTVSS
VL: ENVLTQSPSSLSASVGDRVTMTCSASSSVSSSYLHWYQQKPGKSPKPLIHRTSTLASGVPSRFSGSGSGTSYSLTISSLQPEDIATYYCQQWSGYPYTFGGGTKVEIK
Consider B1, for which, in test [1], the binding result was “no binding (tested: 5 ug/mL)”. Moreover, in test [2], binding was put at a Kd of 0.423 nM. For the same molecule, in test [3], the koff came out at 0.000234 s⁻¹ and the kon was 552000 M⁻¹ s⁻¹. The koff in test [4] is under 1e-07 s⁻¹.

B2: huCAN46G24 (antibody, V domains shown)
VH: EVQLVQSGAEVKKPGESVKVSCKASGYSFTGYYIHWVKQAPGQGLEWVGRIFPYNGAASYNQNFKGKATLTVDKSSSTAYMELSSLRSEDTAVYFCARWLRVYFDYWGQGTTVTVSS
VL: EIVLTQSPSSLSTSVGDRVTISCSASSSVTYMHWYQQKPGKAPKLWIYETSKLASGVPGRFSGSGSGNSYTFTISSLQPEDIATYYCFQGSGYPFTFGQGTKVEIK
notes: also called HuCAN46G24-2-3
For the molecule B2, the binding result in test [5] is on record as “binds”; in test [6], “no binding (tested: 0.038 ug/mL)”.
